# Substrate: O=C(O)C(=O)Cc1ccc(O)cc1
# Assay: purified protein, by the assay type
# Details: other: substrate HPP varied between 10 and 400 µM; SEQ ID No. 32; pH 7.8
protein,measurement,value
"Arabidopsis thaliana HPPD ""SEQ ID No. 32"" (Arabidopsis thaliana) (protein) MGHQNAAVSENQNHDDGAASSPGFKLVGFSKFVRKNPKSDKFKVKRFHHIEFWCGDATNVARRFSWGLGMRFSAKSDLSTGNMVHASYLLTSGDLRFLFTAPYSPSLSAGEIKPTTTASIPSFDHGSCRSFFSSHGLGVRAVAIEVEDAESAFSISVANGAIPSSPPIVLNEAVTIAEVKLYGDVVLRYVSYKAEDTEKSEFLPGFERVEDASSFPLDYGIRRLDHAVGNVPELGPALTYVAGFTGFHQFAEFTADDVGTAESGLNSAVLASNDEMVLLPINEPVHGTKRKSQIQTYLEHNEGAGLQHLALMSEDIFRTLREMRKRSSIGGFDFMPSPPPTYYQNLKKRVGDVLSDDQIKECEELGILVDRDDQGTLLQIFTKPLGDRPTIFIEIIQRVGCMMKDEEGKAYQSGGCGGFGKGNFSELFKSIEEYEKTLEAKQLVG",Km,6.3 µM

# From patent publication EP2669372A1, “HPPD variants and methods of use” (Bayer CropScience AG, priority 2010, dated 2012)
